Patent US20100272731A1 (SCHERING, published 2010)
Numbering of substitutions follows the chain as printed. “And” between values parts separate entries of the source, which are not always exact repeats. Equal values may be shown once. Values belong to the binder of their own block, whether it stands above or below them.

Assays:
human IL-23 [1] = biological target: T1, human IL-23 (human, UniProt P29460 23-328); experiment: BIAcore (SPR), antibody amine-coupled to CM5 chip, IL-23 as analyte
T1 construct: also called hIL-23
T1 sequence 1: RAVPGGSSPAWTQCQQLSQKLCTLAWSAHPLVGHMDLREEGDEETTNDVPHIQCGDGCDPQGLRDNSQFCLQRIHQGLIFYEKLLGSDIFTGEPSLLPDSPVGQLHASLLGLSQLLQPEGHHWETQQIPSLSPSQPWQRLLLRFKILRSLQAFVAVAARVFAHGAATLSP
T1 sequence 2: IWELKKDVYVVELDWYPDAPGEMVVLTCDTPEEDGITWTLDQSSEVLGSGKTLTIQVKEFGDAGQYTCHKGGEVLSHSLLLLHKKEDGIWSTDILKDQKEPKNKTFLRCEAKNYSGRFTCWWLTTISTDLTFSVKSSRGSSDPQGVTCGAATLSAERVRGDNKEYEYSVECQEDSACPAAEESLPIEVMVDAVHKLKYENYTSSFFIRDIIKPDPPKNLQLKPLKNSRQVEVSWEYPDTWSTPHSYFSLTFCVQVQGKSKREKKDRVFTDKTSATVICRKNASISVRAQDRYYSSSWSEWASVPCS
Procedure: (§1) BIAcore determinations are performed essentially as described at Example 4 of commonly assigned U.S. Patent Application Publication No. 2007/0048315. Briefly, ligands (anti-IL-23 mAbs) are immobilized on a BlAcore CM5 sensor chip using standard amine-coupling procedure. IL-23 is diluted in PBS to produce various concentrations. Kinetic constants for the various interactions are determined using BIAevaluation software 3.1. The Kd is determined using the calculated dissociation and association rate constants.

human IL-23 [2] = biological target: T1, human IL-23; experiment: cell-based or functional assay
human IL-23 [3] = biological target: T1, human IL-23; experiment: cell-based or functional assay; remark: listed apart in the source
human IL-23 [4] = biological target: T1, human IL-23; experiment: cell-based or functional assay; remark: listed apart in the source
human IL-23 [5] = biological target: T1, human IL-23; experiment: BIAcore (SPR), essentially as in Example 4
Procedure: as §1

human IL-23 [6] = biological target: T1, human IL-23; experiment: BIAcore (SPR), antibody amine-coupled to CM5 chip, IL-23 as analyte; third determination, lower end of range 81-129
Procedure: as §1

human IL-23 [7] = biological target: T1, human IL-23; experiment: BIAcore (SPR), antibody amine-coupled to CM5 chip, IL-23 as analyte; third determination, upper end of range 81-129
Procedure: as §1

[8] = biological target: T2, non-linked (native) human IL-23 comprising two disulfide-linked chains, human p19 and human p40 (human, UniProt P29460 23-328); experiment: KinExA, antibody pre-incubated with native human IL-23 in solution; first replicate determination (64 ± 40)
T2 sequence 1: T1 sequence 1
T2 sequence 2: T1 sequence 2
Procedure: (§2) The equilibrium dissociation constant (Kd) for anti human IL-23 antibodies is determined using the KinExA 3000 instrument. Sapidyne Instruments Inc., Boise Id., USA. KinExA uses the principle of the Kinetic Exclusion Assay method based on measuring the concentration of uncomplexed antibody in a mixture of antibody, antigen and antibody-antigen complex. The concentration of free antibody is measured by exposing the mixture to a solid-phase immobilized antigen for a very brief period of time. In practice, this is accomplished by flowing the solution phase antigen-antibody mixture past antigen-coated particles trapped in a flow cell. Data generated by the instrument are analyzed using custom software. Equilibrium constants are calculated using a mathematical theory based on the following assumptions: […]
(§3) Binding of anti-IL-23p19 antibodies is assessed in a competition binding assay, in which antibodies are pre-incubated with non-linked (native) human IL-23 comprising two disulfide-linked chains, human p19 (SEQ ID NO: 47) and human p40 (GenBank Accession No. P29460), at a series of concentrations. […] The amount of antibody captured by the PMMA particles is then detected using a fluorescently labeled secondary antibody.

human IL-23 [9] = biological target: T1, human IL-23; experiment: BIAcore (SPR), antibody amine-coupled to CM5 chip, IL-23 as analyte; first determination, upper end of range 72-104
Procedure: as §1

[10] = biological target: T2, non-linked (native) human IL-23 …; experiment: KinExA, antibody pre-incubated with native human IL-23 in solution; third replicate determination
Procedure: as §2, §3

human IL-23 [11] = biological target: T1, human IL-23; experiment: BIAcore (SPR), antibody amine-coupled to CM5 chip, IL-23 as analyte; second determination, lower end of range 68-100
Procedure: as §1

[12] = biological target: T2, non-linked (native) human IL-23 …; experiment: KinExA, antibody pre-incubated with native human IL-23 in solution; second replicate determination
Procedure: as §2, §3

[13] = biological target: T2, non-linked (native) human IL-23 …; experiment: KinExA, antibody pre-incubated with native human IL-23 in solution; fourth replicate determination
Procedure: as §2, §3

human IL-23 [14] = biological target: T1, human IL-23; experiment: BIAcore (SPR), antibody amine-coupled to CM5 chip, IL-23 as analyte; second determination, upper end of range 68-100
Procedure: as §1

human IL-23 [15] = biological target: T1, human IL-23; experiment: BIAcore (SPR), antibody amine-coupled to CM5 chip, IL-23 as analyte; first determination, lower end of range 72-104
Procedure: as §1

human IL-23 [16] = biological target: T1, human IL-23; experiment: BIAcore (SPR), antibody amine-coupled to CM5 chip, IL-23 as analyte; first replicate determination
Procedure: as §1

human IL-23 [17] = biological target: T1, human IL-23; experiment: BIAcore (SPR), antibody amine-coupled to CM5 chip, IL-23 as analyte; second replicate determination
Procedure: as §1
Table 4 provides the Kd values as determined by BlAcore, including replicate determinations.

Kd (human IL-23 [1]): 0.077 nM and 0.129 nM and 0.069 nM and 0.116 nM
IC50 in the Ba/F3 proliferation assay (340 pM IL-23) (human IL-23 [2]): 187 pM
IC50 in the KIT225 STAT-3 phosphorylation assay (138 pM human IL-23) (human IL-23 [2]): 130 pM
IC50 in the human splenocyte assay (IFN-γ production, 170 pM human IL-23) (human IL-23 [2]): 59 to 144 pM
Splenocyte assay IC50 (IL-17 production by mouse splenocytes) (human IL-23 [3]): 0.11 nM and 0.221 nM
IC50 for blocking of Ba/F3 cell proliferation (human IL-23 [4]): 1.2 nM and 1.1 nM
Kd (human IL-23 [5]): 0.297 nM
B1: humanized anti-IL-23p19 antibody 13B8-b (antibody, human IgG1, kappa, V domains shown)
VH: QVQLVQSGAEVKKPGASVKVSCKASGYIFITYWMTWVRQAPGQGLEWMGQIFPASGSADYNEKFEGRVTMTTDTSTSTAYMELRSLRSDDTAVYYCARGGGGFAYWGQGTLVTVSS
VL: DIQMTQSPSSLSASVGDRVTITCRTSENIYSYLAWYQQKPGKAPKLLIYNAKTLAEGVPSRFSGSGSGTDFTLTISSLQPEDFATYYCQHHYGIPFTFGQGTKVEIKR
notes: also called hum13B8-b; Hum 13B8-b

Kd (human IL-23 [1]): 0.092 to 0.153 nM
Splenocyte assay IC50 (IL-17 production by mouse splenocytes) (human IL-23 [3]): 0.515 nM
IC50 for blocking of Ba/F3 cell proliferation (human IL-23 [4]): 1.1 nM and 2.2 nM
B2: humanized anti-IL-23p19 antibody 13B8-c (antibody, human IgG1, kappa, V domains shown)
VH: B1 VH with N61A, E62Q, F64L, E65Q
VL: B1 VL
notes: also called hum13B8-c; h13B8-c

Kd (human IL-23 [6]): ≥ 0.081 nM
Kd (human IL-23 [7]): ≤ 0.129 nM
Kd [8]: 0.064 nM
Kd (human IL-23 [9]): ≤ 0.104 nM
Kd [10]: 0.365 nM
Kd (human IL-23 [11]): ≥ 0.068 nM
Kd [12]: 0.11 nM
IC50 for blocking of Ba/F3 cell proliferation (human IL-23 [4]): 1.1 nM
Kd [13]: 0.447 nM
Kd (human IL-23 [14]): ≤ 0.1 nM
Kd (human IL-23 [15]): ≥ 0.072 nM
B3: humanized anti-IL-23p19 antibody 13B8-a (antibody, human IgG1, kappa, V domains shown)
VH: B1 VH with K63M
VL: B1 VL
notes: also called hum13B8-a; h13B8-a

Kd (human IL-23 [16]): 0.173 nM
Splenocyte assay IC50 (IL-17 production by mouse splenocytes) (human IL-23 [3]): 0.064 nM and 0.028 nM and 0.054 nM
IC50 for blocking of Ba/F3 cell proliferation (human IL-23 [4]): 0.7 nM
Kd (human IL-23 [17]): 0.228 nM
B4: murine antibody 13B8 (mouse IgG1/kappa) (antibody, V domains shown)
VH: HVQLQQSGPELVRPGASVELSCKASGYIFITYWMTWMKQRPGQGLEWIGQIFPASGSADYNEMFEGKATLTVDTSSNTAYMQLSSLTSEDSAVYFCARGGGGFAYWGQGTLVTVSA
VL: DIQMTQSPASLSASVGETVTITCRTSENIYSYLAWYQQKQGKSPQLLVYNAKTLAEGVPSRFSGSGSGTQFSLKINRLQPEDFGRYFCQHHYGIPFTFGSGTKLEIKR
notes: also called m13B8; mouse 13B8
